According to article PMC10936184:

Target: MipA-His6 (Pseudomonas aeruginosa)
Experiment: nano-DSF; isothermal analysis with FoldAffinity: MipA-His6 (5 µM) incubated for 2 h at room temperature with PMB or PME from 76 nM up to 2.5 mM; one site model; fits at 51°C, 52°C and 53°C

Row | Substance | Kd [µM]
1 | polymyxin E (peptide) | 2.8 to 3.4
2 | polymyxin B (peptide) | 8.4 to 10
